This note sets out measurements from patent US20130011412A1.

The target of this assay is T1, recombinant human lymphotoxin-α homotrimer (human LTα3) (human) (UniProt P01374).
T1 sequence (looked up): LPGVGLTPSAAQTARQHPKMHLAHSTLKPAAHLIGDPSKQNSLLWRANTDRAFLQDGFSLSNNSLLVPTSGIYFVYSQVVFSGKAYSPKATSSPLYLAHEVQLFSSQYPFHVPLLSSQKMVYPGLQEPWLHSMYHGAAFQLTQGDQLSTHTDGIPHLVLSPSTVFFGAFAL
The assay can be described thus: plate-based ELISA against LTα. On the technique in general: ELISA stands for enzyme-linked immunosorbent assay.

B1: 3F12 version 8 (3F12.v5 with G95A, CDR-H3) (antibody, IgG1, V domains shown)
VH: EVQLVESGGGLVQPGGSLRLSCAASGYTFSSYWIEWVRQAPGKGLEWVGEISPGSGSTNYNEEFKGRATFSADNSKNTAYLQMNSLRAEDTAVYYCADAYHGYWGQGTLVTVSS
VL: DIQMTQSPSSLSASVGDRVTITCKSSQSLLYSTNQKNFLAWYQQKPGKAPKLLIYWASTRDSGVPSRFSGSGSGTDFTLTISSLQPEDFATYYCQQYYSYPRTFGQGTKVEIK
For the molecule B1, the relative binding (EC50 of the variant / EC50 of version 5) is above 100.

B2: 3F12 version 10 (3F12.v5 with H100A, CDR-H3) (antibody, IgG1, V domains shown)
VH: EVQLVESGGGLVQPGGSLRLSCAASGYTFSSYWIEWVRQAPGKGLEWVGEISPGSGSTNYNEEFKGRATFSADNSKNTAYLQMNSLRAEDTAVYYCADGYAGYWGQGTLVTVSS
VL: DIQMTQSPSSLSASVGDRVTITCKSSQSLLYSTNQKNFLAWYQQKPGKAPKLLIYWASTRDSGVPSRFSGSGSGTDFTLTISSLQPEDFATYYCQQYYSYPRTFGQGTKVEIK
Turning to B2, the relative binding (EC50 of the variant / EC50 of version 5) is above 100.
